Values belong to the binder of their own block, whether it stands above or below them.
Legend:
Assay in all cases: ELISA
SOD protein aggregates = SOD protein aggregates (Homo sapiens (assumed), UniProt P00441)
[1] = target: α-synuclein protein aggregates (Homo sapiens, UniProt P37840)
[2] = target: Aβ(1–28), synthetic, aggregated in the presence of Ca2+ (Homo sapiens, UniProt P05067)
Sequence of Aβ(1–28), synthetic, aggregated in the presence of Ca2+ (P05067 672-699): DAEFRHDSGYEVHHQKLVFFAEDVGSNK

Sequence of SOD protein aggregates (P00441 whole entry): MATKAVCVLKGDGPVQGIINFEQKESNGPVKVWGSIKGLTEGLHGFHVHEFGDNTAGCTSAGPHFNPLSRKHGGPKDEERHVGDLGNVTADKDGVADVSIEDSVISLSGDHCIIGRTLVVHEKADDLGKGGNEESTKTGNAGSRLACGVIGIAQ

binding result (SOD protein aggregates): no binding
binding result [1]: no binding
B1: B28, human monoclonal antibody raised against synthetic oligomeric amyloid-β (antibody, V domains shown)
VH: QVQLVESGGGVVQPGRSVRLSCAATGFTFSSYGMHWVRQAPGKGLEWVAVIWFDGSNEYYADSVRGRFTISRDNSKNTLYLQMNSLRAEDTAVYYCARRGRVGVTRNYYYYNMDVWGQGTTVTVSS
VL: AIQMTQSPSSLSASVGDRVTITCRASQGIRNDLGWFQQKPGKAPKLLIYPASSLQSGVPSRFSGSGSDTDFTLTISSLQPEDFATYYCLQDYNFPFTFGPGTKVDIK

binding result [2]: binds
binding result (SOD protein aggregates): no binding
binding result [1]: no binding
B2: B24, human monoclonal antibody raised against synthetic oligomeric amyloid-β (antibody, V domains shown)
VH: EVQLLESGGGLVQPGGSLRLSCAASGFTFSSYAMTWVRQAPGEGLEWVSTISGSGIRTYYADSVKGRFTISRDNSKNTMYLQMNSLRAEDTAVYYCAKDGLTGDRRWYFDLWGRGTLVTVSS
VL: EIVMTQSPATLSLSPGERATLSCRASQSVSSSYFSWYQQKPGQAPRLLIYGASTRATGIPARFSGSGSGTDFTLTISSLQPEDFAVYYCQQDSNLPLTFGGGTKVEIK

Source: paper PMC9337809 (Brain, 2022)
